Reference: article PMC12557607, “The mitochondrial disulphide relay substrate FAM136A safeguards IMS proteostasis and cellular fitness” (Redox Biology, 2025)

Molecular target: the molecule itself
Assay: SEC; cleared native HEK293 lysate (100 mM sodium phosphate pH 8.0, 100 mM NaCl, 1 % Triton X-100) on HiLoad 16/600 Superdex 200; fractions blotted for endogenous FAM136A

B1: FAM136A (natural protein)
chain: not shown
notes: FAM136A, endogenous in HEK293 cells; soluble protein of the mitochondrial intermembrane space; also called endogenous FAM136A; source: endogenous, HEK293 lysate
  stoichiometry N: ~2
